Positions count from the first letter of the chain named. In names and notes the source's numbering stands.
B1: 163_02_A12 human IgG4 (antibody, V domains shown)
VH: EVRLVQSGAEVKKPGASVKVSCKVSGYTLTELSMHWVRQAPGKGLEWMGGFDPEDGETIYAQKFQGRVTMTEDTSTDTAYMELSSLRSEDTAVYYCATAQKETYALTYWGQGTLVTVSS
VL: DIQMTQSPASLPTSVGDRVTITCRASQYIQGFLNWYQQKPGKAPRLLIYAASTLQDGVPSRFSGSGYGTDFTLTISSLQPEDFATYYCLHHYREPWTFGQGTKVEIKR
notes: human IgG4 with hinge S241P; also called Antibody 163 02 A12 (derived from 2A5)
B2: 163_02_D11 human IgG4 (antibody, V domains shown)
VH: B1 VH
VL: B1 VL with R93K, E94S
notes: human IgG4 with hinge S241P; also called Antibody 163 02 D11 (derived from 2A5)
B3: 162_02_F3 scFv (scFv, V domains shown, not shown: small tags and cut ends)
VH: B1 VH
VL: DIQMTQSPASLPTSVGDRVTITCRASQYIQGFLNWYQQKPGKAPRLLIYAASTLQDGVPSRFSGSGYGTDFTLTISSLQPEDFATYYCQNQYRGPWTFGQGTKVEIK
notes: E. coli supernatant scFv
B4: 160_01_A4 scFv (scFv, V domains shown, not shown: small tags and cut ends)
VH: B1 VH with Y104L, A105G, L106N, T107A, Y108I
VL: B3 VL with N90Q, Q91S, R93S, G94T
notes: E. coli supernatant scFv
B5: 160_01_F1 scFv (scFv, V domains shown, not shown: small tags and cut ends)
VH: B1 VH with K101S, E102P, T103W, Y104S, A105G, L106M
VL: B3 VL with N90Q, Q91S, R93S, G94T
notes: E. coli supernatant scFv
B6: 160_01_G2 scFv (scFv, V domains shown, not shown: small tags and cut ends)
VH: B1 VH with A99Y, Q100T, K101L, E102D, T103N, Y104M
VL: B3 VL with N90Q, Q91S, R93S, G94T
notes: E. coli supernatant scFv
B7: 160_01_H4 scFv (scFv, V domains shown, not shown: small tags and cut ends)
VH: B1 VH with A99G, Q100R, K101F, E102V, T103W, Y104E
VL: B3 VL with N90Q, Q91S, R93S, G94T
notes: E. coli supernatant scFv
B8: 161_01_A12 scFv (scFv, V domains shown, not shown: small tags and cut ends)
VH: B1 VH with K101P, E102T, T103A, Y104L, L106N
VL: B3 VL with N90Q, Q91S, R93S, G94T
notes: E. coli supernatant scFv
B9: 161_01_C09 scFv (scFv, V domains shown, not shown: small tags and cut ends)
VH: B1 VH with K101L, E102P, T103Y, Y104L, L106Q
VL: B3 VL with N90Q, Q91S, R93S, G94T
notes: E. coli supernatant scFv
B10: 161_01_C11 scFv (scFv, V domains shown, not shown: small tags and cut ends)
VH: B1 VH with T103W, Y104L, A105P, L106D, T107V, Y108T
VL: B3 VL with N90Q, Q91S, R93S, G94T
notes: E. coli supernatant scFv
B11: 161_01_F6 scFv (scFv, V domains shown, not shown: small tags and cut ends)
VH: B1 VH with T103N, Y104I, L106N, T107R, Y108H
VL: B3 VL with N90Q, Q91S, R93S, G94T
notes: E. coli supernatant scFv; also called 160_01_F6
B12: 161_01_H10 scFv (scFv, V domains shown, not shown: small tags and cut ends)
VH: B1 VH with K101P, E102V, T103W, Y104A, A105P, L106G
VL: B3 VL with N90Q, Q91S, R93S, G94T
notes: E. coli supernatant scFv

Columns and labels:
[1] = target: T1, mouse tenascin-C rCd4-His-FBG (rat; mouse, UniProt P05540 207-392, limits assumed); experiment: SPR off-rate screen, captured IgG4 supernatant, 25 C
T1 construct: domain: domains 3 and 4; C-terminal FBG fusion; biotinylated in the ELISA screen; also called Mu TNC; mouse TNC rCd4-His-FBG; not shown: 6His tag
T1 sequence (chain (part 1 of 2)): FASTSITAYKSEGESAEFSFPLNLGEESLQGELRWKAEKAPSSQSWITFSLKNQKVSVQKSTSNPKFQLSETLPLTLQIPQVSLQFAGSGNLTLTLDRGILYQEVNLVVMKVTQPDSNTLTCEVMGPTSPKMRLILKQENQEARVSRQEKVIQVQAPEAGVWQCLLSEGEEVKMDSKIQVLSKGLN
T1 sequence (chain (part 2 of 2)): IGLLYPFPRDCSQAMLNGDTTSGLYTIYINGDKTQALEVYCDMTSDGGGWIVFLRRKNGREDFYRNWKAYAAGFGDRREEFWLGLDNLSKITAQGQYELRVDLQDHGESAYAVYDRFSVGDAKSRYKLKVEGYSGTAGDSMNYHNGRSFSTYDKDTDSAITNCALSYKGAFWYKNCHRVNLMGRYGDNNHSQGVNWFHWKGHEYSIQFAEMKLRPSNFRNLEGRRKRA
Description: (§1) The 31 scFv of interest were sub-cloned into a human IgG4 expression vector for generation of antibodies as human IgG4 with a hinge-stabilising mutation (S241P; Angal et al, 1993). […] Briefly, surface plasmon resonance (SPR) experiments were performed using a BIAcore T100 instrument and followed the protocol according to the Human antibody capture kit protocol (GE, BR-1008-39). For off-rate screening, 10,000 response units (RU) of anti-human Fc IgG (GE, BR-1008-39) was immobilised on flow-cells (FC1 and FC2) of a Series 5 CM5 dextran sensor chip (BR-1005-30) using EDC/NHS cross-linking chemistry according to the amine coupling kit protocol (GE, BR-1000-50). Culture supernatants containing expressed IgG4 were diluted 1:2 with 2×PBS-T and injected into FC2 (flowrate 5 μl/min, 60 s contact time) to enable antibody capture at 25° C. […] A fixed concentration of antigen (15 nM of human and mouse TNC rCd4-His-FBG and 100 nM of human TNR rCd4-His-FBG) was injected with a flow-path via FC 1 (reference flow cell) and FC 2 (antibody capture flow cell), with a flow rate of 30 μl/min, and the association and dissociation phases measured over 1 and 5 min time periods, respectively. Regeneration of the binding surface employed 3M MgCl₂ with 30 s contact time. Off rates were determined by reference cell subtraction and fitting the sensogram experimental data assuming a 1:1 interaction using BIAevaluation software (GE, BR-1005-97).

[2] = target: T2, human tenascin-C rCd4-His-FBG (rat; human, UniProt P05540 207-392, limits assumed); experiment: as above
T2 construct: domain: domains 3 and 4; C-terminal FBG fusion; biotinylated in the ELISA and HTRF screens; also called Hu TNC; human TNC rCd4-His-FBG; not shown: 6His tag
T2 sequence (chain (part 1 of 2)): T1 sequence (chain (part 1 of 2))
T2 sequence (chain (part 2 of 2)): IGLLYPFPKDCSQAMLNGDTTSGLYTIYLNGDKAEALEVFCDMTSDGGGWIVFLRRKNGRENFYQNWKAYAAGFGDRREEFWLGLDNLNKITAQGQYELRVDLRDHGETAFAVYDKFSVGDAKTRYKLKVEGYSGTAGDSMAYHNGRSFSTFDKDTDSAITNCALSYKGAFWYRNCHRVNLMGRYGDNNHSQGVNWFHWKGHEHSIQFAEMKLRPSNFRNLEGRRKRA
Description: as §1

[3] = target: T2, human tenascin-C rCd4-His-FBG; experiment: HTRF competition; competitor d2-labelled B12 IgG
Description: All samples and reagents were prepared in assay buffer (50 mM NaPO₄, 0.1% BSA, 0.4 M KF, pH 7.0) at 4× the stated concentration. 5 μl of each reagent was subsequently added to low volume 384-well assay plates (Greiner, 784075) to give a final reaction volume of 20 μl. IgG antibodies were labelled using the d2 labelling kit (CisBio, 62D2DPEA) as directed by the manufacturer. Streptavidin europium cryptate (CisBio, 610SAKLA, Lot#25C) was used at a final concentration of 1.8 ng active moiety (SA) per 20 μl reaction as recommended by the manufacturer. Biotinylated rCd4-His-FBG was prepared using EZ-link Sulfo-NHS-LC-Biotin reagent (Thermo Scientific, 21327) the extent of biotinylation was quantified using biotinylation fluorescence quantitation kit (Thermo Scientific, 46610). Where appropriate, supernatants containing scFv (prepared as described above for ELISA assays) were added to the 384-well assay plate at a final dilution of 1/20 (i.e. 1/5 dilution in assay buffer followed by addition of 5 μl diluted sample to the 20 μl FRET assay). […] Samples were incubated for approximately 1 h at room temperature and the FRET signal was determined using a BMG Pherastar instrument: excitation=320 nm; emission=620 nm and 665 nm; integration start time=60 μs; integration time=500 μs; 100 flashes per well. For competition assays containing culture supernatant, biotinylated rCd4-His-FBG antigen was pre-incubated with streptavidin europium cryptate for 45 min prior to addition of reagents to the assay plate. All FRET signals are presented as ΔR, where R=(E665/E620×104) and ΔR=(Rsample−Rbackground fluorescence).

[4] = target: T1, mouse tenascin-C rCd4-His-FBG; experiment: anti-FLAG capture ELISA, scFv supernatant

Binder | koff [1] | koff [2] | % inhibition of FRET signal [3] | fold improvement in binding over parent [4]
B1 | 0.00094 s⁻¹ | 3.2e-07 s⁻¹ |  | 
B2 | 0.00098 s⁻¹ | 3.2e-07 s⁻¹ |  | 
B3 |  |  | ≥ 83% | ≥ 10 fold
B4 |  |  | ≥ 90% | ≥ 10 fold
B5 |  |  | ≥ 90% | ≥ 10 fold
B6 |  |  | ≥ 90% | ≥ 10 fold
B7 |  |  | ≥ 90% | ≥ 10 fold
B8 |  |  | ≥ 90% | ≥ 10 fold
B9 |  |  | ≥ 90% | ≥ 10 fold
B10 |  |  | ≥ 90% | ≥ 10 fold
B11 |  |  | ≥ 90% | ≥ 10 fold
B12 |  |  | ≥ 90% | ≥ 10 fold

Reference: patent publication US20170306005A1 (NASCIENT, published 2017)
